Measured values as given in patent US6759384.
Non-standard residues stand in square brackets, D forms with d. *: point of attachment. Phe(4-NH2) = Nc1ccc(C[C@H](N)C(=O)O)cc1; 2Nal = N[C@@H](Cc1ccc2ccccc2c1)C(=O)O; Hyp = O=C(O)[C@@H]1C[C@@H](O)CN1; Cha = N[C@@H](CC1CCCCC1)C(=O)O; Chg = N[C@H](C(=O)O)C1CCCCC1; Cbz = O=C(OCc1ccccc1)*

The substances below were run against human factor Xa (Enzyme Research Laboratories, Inc.) (human) (UniProt P00742) (assay: chromogenic FXa inhibition).
Chain of human factor Xa (Enzyme Research Laboratories, Inc.) (human) (P00742 41-179 limits assumed, chain 1 of 2): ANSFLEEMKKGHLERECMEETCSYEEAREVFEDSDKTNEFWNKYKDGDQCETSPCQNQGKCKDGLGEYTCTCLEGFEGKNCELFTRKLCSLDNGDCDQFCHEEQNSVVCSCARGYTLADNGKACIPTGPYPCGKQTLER
Chain of human factor Xa (Enzyme Research Laboratories, Inc.) (human) (P00742 235-488 limits assumed, chain 2 of 2): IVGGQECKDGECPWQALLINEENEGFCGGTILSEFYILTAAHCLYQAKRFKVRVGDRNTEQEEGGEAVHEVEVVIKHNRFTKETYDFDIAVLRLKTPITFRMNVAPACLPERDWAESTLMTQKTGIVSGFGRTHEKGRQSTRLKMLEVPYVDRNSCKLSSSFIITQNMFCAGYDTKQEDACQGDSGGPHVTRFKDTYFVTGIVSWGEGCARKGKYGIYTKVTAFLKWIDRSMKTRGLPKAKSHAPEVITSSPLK

Ki, < 100 µM:
3-phenoxyproprionic-Y-Chg-R-NH2 (peptide), 5-Bzim-CO-Chg-R-L-P-NH2 (peptide), 5-Hic-Chg-R-NH2 (peptide), (2-benzofuroyl)-Phe(pNH2)-Chg-Dab(CH═N(CH3)2)-Leu-Pro-NH2 (peptide), (2-benzofuroyl)-Tyr-Chg-Arg-Pen-Pro-NH2 (peptide), (2-benzofuroyl)-pAph-Chg-Arg-Pen(CH2COOH)-Pro-NH2 (peptide), (2-benzofuroyl)-pAph-Chg-PalMe(3)-NH2 (peptide), (2-benzofuroyl)-pAph-Chg-PalMe(3)-Pen(CH2COOH)-Pro-NH2 (peptide), (2-fluorobenzoyl)-pAph-Chg-NH-(4-trimethyl-ammonium benzyl) (peptide), (2-furoyl)-pAph-Chg-NH-1-[3(N-methylpyridyl)]-1-(methylacetate)ethyl (peptide), (2-furoyl)-pAph-Chg-NH-(4-trimethyl-ammonium benzyl) (peptide), (2-pyridoyl)-pAph-Chg-PalMe(3)-NH2 (peptide), (2-quinolinoyl)-pAph-Chg-PalMe(3)-NH2 (peptide), (2-thienylacetyl)-pAph-Chg-NH-(4-trimethyl-ammonium benzyl) (peptide), (3,4-dichlorobenzoyl)-pAph-Chg-NH-(4-trimethyl-ammonium benzyl) (peptide), (3-pyridoyl)-Nal(2)-Chg-Arg-Leu-Pro-NH2 (peptide), (5-pyrazinoyl)Nal(2)-Chg-Arg-Leu-Pro-NH2 (peptide), (Alloc)-pAph-Chg-Arg-Leu-Pro-NH2 (peptide), (Ethoxycarbonyl)-pAph-Chg-NH-(4-trimethyl-ammonium benzyl) (peptide), (N-(5-methyl-2-thienoyl)-pAph-Chg-NH-(4-trimethyl-ammonium benzyl) (peptide), (iBu)Y-I-R-OH (peptide), (pOH)C6H4-CH2CH2(OH)-CO-I-R-L-Sar-NH2 (peptide), (t-Butoxycarbonyl)-pAph-Chg-NH-(4-trimethyl-ammonium benzyl) (peptide), Ac-(3,5,5-Me-3-nHexyl)Y-I-R-NH2 (peptide), Ac-(4-MeO-Bzl)Y-I-R-NH2 (peptide), Ac-(4-pyridil-CH2-)Y-I-R-NH2 (peptide), Ac-(Bzl)G-(Chx)Gly-(3-GuanidoPropyl)G-NH2 (peptide), Ac-(Bzl)Y-I-R-NH2 (peptide), Ac-(iBu)F(pNH2)-Chg-R-NH2 (peptide), Ac-(iBu)Y-Chg-R-NH2 (peptide), Ac-(iBu)Y-I-R-NH2 (peptide), Ac-(iBu-Nal(2)-Chg-R-L-P-NH2 (peptide), Ac-(nBu)Y-I-R-NH2 (peptide), Ac-D-pAph-Chg-Arg-(carboxyethyl)Gly-Pro-NH2 (peptide), Ac-D-pAph-Chg-Arg-Cys-(CH2-COOH)-Pro-NH2 (peptide), Ac-D-pAph-Chg-Arg-Gla-Pro-NH2 (peptide), Ac-D-pAph-Chg-Arg-Leu-Pro-NH2 (peptide), Ac-D-pAph-Chg-Arg-N(carboxymethyl)Gly-Pro-NH2 (peptide), Ac-D-pAph-Chg-Arg-NH2 (peptide), Ac-D-pAph-Chg-Arg-N[1(1,3-dicarboxy)propyl)]Gly-Pro-NH2 (peptide), Ac-D-pAph-Chg-PalMe(3)-Leu-Pro-NH2 (peptide), Ac-F(pNH2)-Chg-R-NH2 (peptide), Ac-Nal(2)-Cha-R-D(O-Allyl)-NH2 (peptide), Ac-Nal(2)-Chg-R-NH2 (peptide), Ac-Pal(4)Me-Chg-Arg-Leu-Pro-NH2 (peptide), Ac-Pal(4)Me-Chg-Pal(4)Me-Leu-Pro-NH2 (peptide), Ac-Pal(4)Me-Chg-PalMe(3)-Leu-Pro-NH2 (peptide), Ac-Pgl(OH)-I-R-L-NH2 (peptide), Ac-Y-Chg-R(NO2)-{ψ(CH2NH)}-L-NH2 (peptide), Ac-Y-Chg-R-NH-Bzl-4-OMe (peptide), Ac-Y-Chg-R-NH-CH2(2-(1-Et)pyrrolidinyl) (peptide), Ac-Y-Chg-R-NH-CH2(2-(6-EtO)benzylthiazolyl) (peptide), Ac-Y-Chg-R-NH-CH2-Chx (peptide), Ac-Y-Chg-R-NH-CH2CH2-COOH (peptide), Ac-Y-Chg-R-NH-CH2CH2-N(CH3)4 (peptide), Ac-Y-Chg-R-NH-CH2CH2-N-(CH3)2 (peptide), Ac-Y-Chg-R-NH-CH2CH2-O-CH3 (peptide), Ac-Y-Chg-R-NH-Chx (peptide), Ac-Y-I-PalMe(3)-NH2 (peptide), Ac-Y-I-R-L-P-Dab(Ac-Y-I-R-L-P(G-A)3)-OH (peptide), Ac-Y-I-R-L-P-Dab(Ac-Y-I-R-L-P(G-A)6)-OH (peptide), Ac-Y-I-R-N(Me)O-CH3 (peptide), Ac-Y-I-R-NH2 (peptide), Ac-Y-I-R-NH-4-morpholinyl (peptide), Ac-Y-I-R-NH-CH2-4-Pyridyl (peptide), Ac-Y-I-R-NH-CH2CH2-N(CH3)2 (peptide), Ac-Y-I-R-NH-OCH3 (peptide), Ac-Y-I-R-Nle-Hyp (peptide), Ac-Y-I-R-Piperidyl (peptide), Ac-Y-Nva-R-NH2 (peptide), Ac-[2Nal][Cha]RLP-NH2, Ac-[Phe(4-NH2)][Chg]RL[Hyp]-NH2, Ac-mAph-Chg-Arg-Leu-Pro-NH2 (peptide), Ac-pAph-Cha-PalMe(3)-(Me)Leu-Pro-NH2 (peptide), Ac-pAph-Chg-Arg (peptide), Ac-pAph-Chg-Arg(HOOC-CH2-CH2)Gly-Pro-NH2 (peptide), Ac-pAph-Chg-Arg-(HOOC-CH2)Gly-Pro-NH2 (peptide), Ac-pAph-Chg-Arg-Cys(CH2COOH)-Pro-NH2 (peptide), Ac-pAph-Chg-Arg-Gla-Pro-NH2 (peptide), Ac-pAph-Chg-Arg-Leu-NH2 (peptide), Ac-pAph-Chg-Arg-Leu-OH (peptide), Ac-pAph-Chg-Arg-NH2 (peptide), Ac-pAph-Chg-Arg-N[1(1,3-dicarboxy)propyl)]Gly-Pro-NH2 (peptide), Ac-pAph-Chg-Arg-Pen(CH2COOH)-Pro-NH2 (peptide), Ac-pAph-Chg-Dab(CH ═N(CH3)2)-Leu-Pro-NH2 (peptide), Ac-pAph-Chg-Dap(CH═N(CH3)2)-Leu-Pro-NH2 (peptide), Ac-pAph-Chg-NH-1-[3(N-methylpyridyl)]-1-(methylacetate)ethyl (peptide), Ac-pAph-Chg-NH-(4-amidinobenzyl) (peptide), Ac-pAph-Chg-NH-(4-trimethyl-ammonium benzyl) (peptide), Ac-pAph-Chg-NH-[1-(1-methyl-4-pyridinium)-2-hydroxy]ethyl (peptide), Ac-pAph-Chg-NH-[1-(1-methyl-4-pyridinium)ethyl (peptide), Ac-pAph-Chg-NH[4-(1-methyl-pyridinium)methyl] (peptide), Ac-pAph-Chg-Pal(3)(CH2COOH)-NH2 (peptide), Ac-pAph-Chg-PalMe(3)-Leu-Pro-NH2 (peptide), Ac-pAph-Chg-PalMe(3)-NH2 (peptide), Ac-pAph-Chg-PalMe(3)-NH(1-methoxycarbonyl)-1-cyclohexyl (peptide), Ac-pAph-Chg-PalMe(3)-NH-(1-methoxycarbonyl)-1-cyclopentyl (peptide), Ac-pAph-Chg-PalMe(3)-NH-(3-thienyl-2-carboxylic acid methyl ester) (peptide), Ac-pAph-Chg-PalMe(3)-NH-(4-carboxycyclohexyl) methyl (peptide), Ac-pAph-Chg-PalMe(3)-NH-(4-methoxycarbonyl-cyclohexyl)methyl (peptide), Ac-pAph-Chg-PalMe(3)-Pen(CH2COOH)-Pro-NH2 (peptide), Ac-pAph-Chg-R-L-P-NH2 (peptide), Ac-pAph-Pgl-PalMe(3)-NH2 (peptide), Ac-y-I-R-NH2 (peptide), Alloc-D-pAph-Chg-Arg-Leu-Pro-NH2 (peptide), Alloc-pAph-Chg-NH-[4-(-methylpyridinium)-methyl] (peptide), Alloc-pAph-Chg-PalMe(3)-NH2 (peptide), Alloc-pAph-Chg-PalMe(3)-Pen(CH2COOH)-Pro-NH2 (peptide), CF3C(O)-(iBu)Tyr-Chg-Arg-OH (peptide), Caff-I-R-NH2 (peptide), Cbz-I-R-NH2 (peptide), Cbz-Ile-Arg-Leu-NH2, ClCH2CO-Y-I-R-NH2 (peptide), Nal(2)-Cha-R-D(O-Allyl)-NH2 (peptide), Nal(2)-Cha-R-D(O-Allyl)-Sar-NH2 (peptide), Nal(2)-Chg-R-L-P-NH2 (peptide)
